In article PMC9652331:

Tests used:
Experiment in all cases: EMSA
[1] = biological target: WTAP;VIRMA (Homo sapiens;Homo sapiens) (UniProt Q15007+Q69YN4); details: WV; EMSA: 5 nM FAM-RNA, 20 mM HEPES pH 7.5, 100 mM KCl, 10% glycerol, 1 mM DTT, 25 C, 20 min; 8% native PAGE in 1x TBE at 4 C; Kd from loss of free RNA, Hill fit …
[2] = biological target: HAKAI;WTAP;VIRMA;ZC3H13 (1106-1668) (Homo sapiens;Homo sapiens;Homo sapiens;Homo sapiens) (UniProt Q75N03+Q15007+Q69YN4+Q5T200); details: HWVZ; EMSA: 5 nM FAM-RNA, 20 mM HEPES pH 7.5, 100 mM KCl, 10% glycerol, 1 mM DTT, 25 C, 20 min; 8% native PAGE in 1x TBE at 4 C; Kd from loss of free RNA, Hill fit …
HAKAI;WTAP;VIRMA;ZC3H13 (1106-1668) (Homo sapiens;Homo sapiens;Homo sapiens;Homo sapiens), sequence (Q75N03 whole entry, chain 1 of 4): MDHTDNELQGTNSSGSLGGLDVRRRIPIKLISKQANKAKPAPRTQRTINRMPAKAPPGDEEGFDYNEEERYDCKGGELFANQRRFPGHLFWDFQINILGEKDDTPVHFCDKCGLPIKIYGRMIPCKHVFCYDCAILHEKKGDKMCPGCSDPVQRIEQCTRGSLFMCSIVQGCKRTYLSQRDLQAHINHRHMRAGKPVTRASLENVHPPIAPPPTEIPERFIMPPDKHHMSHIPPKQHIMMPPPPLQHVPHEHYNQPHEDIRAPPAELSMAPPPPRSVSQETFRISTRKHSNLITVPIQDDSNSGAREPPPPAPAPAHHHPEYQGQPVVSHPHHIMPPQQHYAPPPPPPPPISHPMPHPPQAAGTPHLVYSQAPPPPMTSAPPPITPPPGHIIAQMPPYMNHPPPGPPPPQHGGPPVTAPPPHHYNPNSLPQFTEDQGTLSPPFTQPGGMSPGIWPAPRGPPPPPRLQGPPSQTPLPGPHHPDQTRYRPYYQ
HAKAI;WTAP;VIRMA;ZC3H13 (1106-1668) (Homo sapiens;Homo sapiens;Homo sapiens;Homo sapiens), sequence (Q15007 whole entry, chain 2 of 4): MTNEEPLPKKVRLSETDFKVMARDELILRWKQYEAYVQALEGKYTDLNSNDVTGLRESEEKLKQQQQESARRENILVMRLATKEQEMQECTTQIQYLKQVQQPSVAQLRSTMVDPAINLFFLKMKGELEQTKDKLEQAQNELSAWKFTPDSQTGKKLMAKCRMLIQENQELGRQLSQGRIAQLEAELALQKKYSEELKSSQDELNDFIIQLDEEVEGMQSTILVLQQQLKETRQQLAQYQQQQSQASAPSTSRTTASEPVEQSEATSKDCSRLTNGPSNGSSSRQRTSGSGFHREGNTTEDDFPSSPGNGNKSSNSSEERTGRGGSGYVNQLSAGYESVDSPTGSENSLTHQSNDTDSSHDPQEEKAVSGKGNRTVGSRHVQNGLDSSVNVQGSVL
HAKAI;WTAP;VIRMA;ZC3H13 (1106-1668) (Homo sapiens;Homo sapiens;Homo sapiens;Homo sapiens), sequence (Q69YN4 whole entry, chain 3 of 4): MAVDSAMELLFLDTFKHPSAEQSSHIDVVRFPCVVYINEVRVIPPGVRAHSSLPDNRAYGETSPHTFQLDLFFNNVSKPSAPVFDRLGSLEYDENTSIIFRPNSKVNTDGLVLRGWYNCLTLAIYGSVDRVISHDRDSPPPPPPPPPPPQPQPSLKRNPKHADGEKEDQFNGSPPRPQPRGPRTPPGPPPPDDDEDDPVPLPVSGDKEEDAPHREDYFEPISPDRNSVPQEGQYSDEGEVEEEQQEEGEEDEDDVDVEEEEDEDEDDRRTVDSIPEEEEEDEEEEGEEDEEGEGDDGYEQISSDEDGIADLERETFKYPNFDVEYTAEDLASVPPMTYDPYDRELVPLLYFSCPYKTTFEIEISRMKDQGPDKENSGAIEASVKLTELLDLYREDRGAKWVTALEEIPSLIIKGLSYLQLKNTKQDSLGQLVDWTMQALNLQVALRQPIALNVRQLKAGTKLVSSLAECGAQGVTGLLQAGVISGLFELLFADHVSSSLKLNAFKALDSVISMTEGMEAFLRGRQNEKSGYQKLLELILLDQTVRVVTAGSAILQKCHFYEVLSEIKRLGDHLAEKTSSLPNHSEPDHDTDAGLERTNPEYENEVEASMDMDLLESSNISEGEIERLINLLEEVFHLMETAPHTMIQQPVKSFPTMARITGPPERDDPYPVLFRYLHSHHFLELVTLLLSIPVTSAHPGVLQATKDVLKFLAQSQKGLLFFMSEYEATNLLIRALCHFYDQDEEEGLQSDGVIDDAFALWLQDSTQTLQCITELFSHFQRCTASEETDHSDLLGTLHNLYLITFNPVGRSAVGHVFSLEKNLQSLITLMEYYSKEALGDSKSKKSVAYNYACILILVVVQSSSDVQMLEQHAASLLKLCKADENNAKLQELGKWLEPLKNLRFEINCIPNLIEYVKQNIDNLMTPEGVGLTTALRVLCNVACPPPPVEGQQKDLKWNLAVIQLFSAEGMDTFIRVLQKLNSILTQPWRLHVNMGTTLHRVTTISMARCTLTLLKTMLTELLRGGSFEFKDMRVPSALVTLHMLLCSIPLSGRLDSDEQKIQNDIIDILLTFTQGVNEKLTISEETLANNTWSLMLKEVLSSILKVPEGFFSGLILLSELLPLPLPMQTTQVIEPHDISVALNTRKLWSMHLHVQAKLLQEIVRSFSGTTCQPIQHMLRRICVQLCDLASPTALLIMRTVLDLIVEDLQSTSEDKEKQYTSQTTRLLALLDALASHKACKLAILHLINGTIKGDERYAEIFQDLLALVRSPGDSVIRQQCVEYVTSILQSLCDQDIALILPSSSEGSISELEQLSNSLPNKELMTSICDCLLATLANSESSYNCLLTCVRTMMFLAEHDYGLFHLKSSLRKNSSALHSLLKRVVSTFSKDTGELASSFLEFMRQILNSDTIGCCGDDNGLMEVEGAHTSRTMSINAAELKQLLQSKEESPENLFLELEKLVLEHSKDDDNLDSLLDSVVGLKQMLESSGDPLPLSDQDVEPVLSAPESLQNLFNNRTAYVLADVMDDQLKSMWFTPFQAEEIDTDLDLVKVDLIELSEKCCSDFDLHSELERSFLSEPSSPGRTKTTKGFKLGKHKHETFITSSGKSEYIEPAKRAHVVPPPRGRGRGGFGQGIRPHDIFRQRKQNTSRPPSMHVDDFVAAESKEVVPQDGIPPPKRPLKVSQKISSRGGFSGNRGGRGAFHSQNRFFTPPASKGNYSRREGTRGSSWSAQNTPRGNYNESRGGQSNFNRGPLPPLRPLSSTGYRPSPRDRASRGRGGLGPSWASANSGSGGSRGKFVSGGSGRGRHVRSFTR
HAKAI;WTAP;VIRMA;ZC3H13 (1106-1668) (Homo sapiens;Homo sapiens;Homo sapiens;Homo sapiens), sequence (Q5T200 1106-1668, chain 4 of 4): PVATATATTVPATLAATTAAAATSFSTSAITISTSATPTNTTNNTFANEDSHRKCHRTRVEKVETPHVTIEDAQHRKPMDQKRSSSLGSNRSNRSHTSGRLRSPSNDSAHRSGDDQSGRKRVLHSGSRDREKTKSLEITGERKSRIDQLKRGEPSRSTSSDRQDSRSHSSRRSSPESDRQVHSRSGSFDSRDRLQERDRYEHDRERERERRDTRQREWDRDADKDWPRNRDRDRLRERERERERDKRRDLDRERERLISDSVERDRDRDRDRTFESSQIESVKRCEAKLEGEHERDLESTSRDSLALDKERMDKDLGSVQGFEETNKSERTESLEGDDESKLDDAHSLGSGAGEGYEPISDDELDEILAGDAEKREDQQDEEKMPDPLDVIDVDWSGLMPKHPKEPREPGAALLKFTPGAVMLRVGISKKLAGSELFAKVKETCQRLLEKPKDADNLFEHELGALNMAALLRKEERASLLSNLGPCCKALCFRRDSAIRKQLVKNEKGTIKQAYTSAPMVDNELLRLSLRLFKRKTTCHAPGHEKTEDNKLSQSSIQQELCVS

[3] = biological target: HAKAI;WTAP;VIRMA (Homo sapiens;Homo sapiens;Homo sapiens) (UniProt Q75N03+Q15007+Q69YN4); details: HWV (no ZC3H13); EMSA: 5 nM FAM-RNA, 20 mM HEPES pH 7.5, 100 mM KCl, 10% glycerol, 1 mM DTT, 25 C, 20 min; 8% native PAGE in 1x TBE at 4 C; Kd from loss of free RNA, Hill fit …
HAKAI;WTAP;VIRMA (Homo sapiens;Homo sapiens;Homo sapiens), sequence (Q75N03 whole entry, chain 1 of 3): as the sequence (Q75N03 whole entry, chain 1 of 4) above
HAKAI;WTAP;VIRMA (Homo sapiens;Homo sapiens;Homo sapiens), sequence (Q15007 whole entry, chain 2 of 3): as the sequence (Q15007 whole entry, chain 2 of 4) above
HAKAI;WTAP;VIRMA (Homo sapiens;Homo sapiens;Homo sapiens), sequence (Q69YN4 whole entry, chain 3 of 3): as the sequence (Q69YN4 whole entry, chain 3 of 4) above

[4] = biological target: WTAP;VIRMA;ZC3H13 (1106-1668) (Homo sapiens;Homo sapiens;Homo sapiens) (UniProt Q15007+Q69YN4+Q5T200); details: WVZ (no HAKAI); EMSA: 5 nM FAM-RNA, 20 mM HEPES pH 7.5, 100 mM KCl, 10% glycerol, 1 mM DTT, 25 C, 20 min; 8% native PAGE in 1x TBE at 4 C; Kd from loss of free RNA, Hill fit …
WTAP;VIRMA;ZC3H13 (1106-1668) (Homo sapiens;Homo sapiens;Homo sapiens), sequence (Q15007 whole entry, chain 1 of 3): as the sequence (Q15007 whole entry, chain 2 of 4) above
WTAP;VIRMA;ZC3H13 (1106-1668) (Homo sapiens;Homo sapiens;Homo sapiens), sequence (Q69YN4 whole entry, chain 2 of 3): as the sequence (Q69YN4 whole entry, chain 3 of 4) above
WTAP;VIRMA;ZC3H13 (1106-1668) (Homo sapiens;Homo sapiens;Homo sapiens), sequence (Q5T200 1106-1668, chain 3 of 3): as the sequence (Q5T200 1106-1668, chain 4 of 4) above

WTAP;VIRMA (Homo sapiens;Homo sapiens), sequence (Q15007 whole entry, chain 1 of 2): as the sequence (Q15007 whole entry, chain 2 of 4) above
WTAP;VIRMA (Homo sapiens;Homo sapiens), sequence (Q69YN4 whole entry, chain 2 of 2): as the sequence (Q69YN4 whole entry, chain 3 of 4) above

“GGCCCCUCCAUCGUCCACCGCAAAUGCUUCUAGGCGGACUAUGACUUAGUUGCGUUACACCCUUUCUUGACAAAACCUAACUUGCACAGAAAACA [ACTB-1 RNA]” showed a Kd [1] of 826 nM, a Kd [2] of 214 nM and a Kd [3] of 563 nM. The Kd [4] was 256 nM.
